Bridge positions count the residues as written; N and C are the ends. Square brackets hold non-standard residues; d marks the D form. Peptide text beside a SMILES is read from it. * marks the point of attachment. DOTA(p-xylylenediamine) = O=C(O)CN1CCN(CC(=O)O)CCN(CC(=O)NCc2ccc(CN*)cc2)CCN(CC(=O)O)CC1; DOTA = O=C(O)CN1CCN(CC(=O)O)CCN(CC(=O)*)CCN(CC(=O)O)CC1; Tyr(3-Cl) = N[C@@H](Cc1ccc(O)c(Cl)c1)C(=O)O; Hyp = O=C(O)[C@@H]1C[C@@H](O)CN1
Columns and labels:
arterial thrombus = experiment: Biodistribution in rat model of carotid artery thrombosis; assay type: in vivo; details: 120 min post injection, ratio of %ID/g
[1] = as above; assay type: in vivo; details: male, Wistar, in vivo, iv, total radioactivity, Biodistribution

Compound	thrombus uptake relative to blood (arterial thrombus)	tissue uptake at 2 h ([1]; blood) [%ID/g]	tissue uptake at 2 h ([1]; bone) [%ID/g]	tissue uptake at 2 h ([1]; brain) [%ID/g]	tissue uptake at 2 h ([1]; clot) [%ID/g]	tissue uptake at 2 h ([1]; heart) [%ID/g]	tissue uptake at 2 h ([1]; intestine) [%ID/g]	tissue uptake at 2 h ([1]; kidney) [%ID/g]	tissue uptake at 2 h ([1]; liver) [%ID/g]	tissue uptake at 2 h ([1]; lungs) [%ID/g]	tissue uptake at 2 h ([1]; muscle) [%ID/g]	tissue uptake at 2 h ([1]; spleen) [%ID/g]
CC[C@H](C)[C@H](NC(=O)[C@H](Cc1ccc(O)cc1)NC(=O)[C@@H]1CSSC[C@H](NC(=O)[C@@H](CCC(=O)O)NC(=O)[C@H](Cc2ccc(O)cc2)NC(=O)CN2CCN(CC(=O)O)CCN(CC(=O)O)CCN(CC(=O)O)CC2)C(=O)N2C[C@H](O)C[C@H]2C(=O)N[C@@H](Cc2ccc(O)c(Cl)c2)C(=O)NCC(=O)N[C@@H](CC(C)C)C(=O)N1)C(=O)N[C@@H](CCC(N)=O)C(=O)NCc1ccc(CNC(=O)CN2CCN(CC(=O)O)CCN(CC(=O)O)CCN(CC(=O)O)CC2)cc1 [FBP1] ({DOTA}-Y[dE]C[Hyp][Tyr(3-Cl)]GLCYIQ-{DOTA(p-xylylenediamine)}; disulfide 3-8)	> 2.5 fold											
CC[C@H](C)[C@H](NC(=O)[C@H](Cc1c[nH]cn1)NC(=O)[C@@H]1CSSC[C@H](NC(=O)[C@H](Cc2c[nH]cn2)NC(=O)[C@H](Cc2ccccc2)NC(=O)CN2CCN(CC(=O)O)CCN(CC(=O)O)CCN(CC(=O)O)CC2)C(=O)N2C[C@H](O)C[C@H]2C(=O)N[C@@H](Cc2ccc(O)c(Cl)c2)C(=O)N[C@@H](CC(=O)O)C(=O)N[C@@H](CC(C)C)C(=O)N1)C(=O)N[C@@H](CC(C)C)C(=O)NCc1ccc(CNC(=O)CN2CCN(CC(=O)O)CCN(CC(=O)O)CCN(CC(=O)O)CC2)cc1 [FBP2] ({DOTA}-FHC[Hyp][Tyr(3-Cl)]DLCHIL-{DOTA(p-xylylenediamine)}; disulfide 3-8)	> 2.5 fold	0.164 ± 0.016	0.043 ± 0.015	0.017 ± 0.004	0.445 ± 0.102	0.074 ± 0.011	0.278 ± 0.095	2.72 ± 0.848	0.617 ± 0.187	0.048 ± 0.01	0.012 ± 0.003	0.071 ± 0.016
CC[C@H](C)[C@H](NC(=O)[C@H](Cc1c[nH]c2ccccc12)NC(=O)[C@@H]1CSSC[C@H](NC(=O)[C@H](CCC(=O)O)NC(=O)[C@H](Cc2c[nH]c3ccccc23)NC(=O)CN2CCN(CC(=O)O)CCN(CC(=O)O)CCN(CC(=O)O)CC2)C(=O)N2C[C@H](O)C[C@H]2C(=O)N[C@@H](Cc2ccc(O)c(Cl)c2)C(=O)NCC(=O)N[C@@H](CC(C)C)C(=O)N1)C(=O)N[C@@H](CCC(N)=O)C(=O)NCc1ccc(CNC(=O)CN2CCN(CC(=O)O)CCN(CC(=O)O)CCN(CC(=O)O)CC2)cc1 [FBP3] ({DOTA}-WEC[Hyp][Tyr(3-Cl)]GLCWIQ-{DOTA(p-xylylenediamine)}; disulfide 3-8)	no difference	0.184 ± 0.026	0.041 ± 0.011	0.011 ± 0.003	0.183 ± 0.088	0.082 ± 0.01	0.184 ± 0.053	0.621 ± 0.186	1.46 ± 0.292	0.066 ± 0.008	0.009 ± 0.001	0.04 ± 0.006

Reference: article PMC3593967 (Molecular pharmaceutics, 2013)
